Data as given in paper PMC11814294, “A pathogen effector HaRxL10 hijacks the circadian clock component CHE to perturb both plant development and immunity”.

Target: GST-CHE (Arabidopsis thaliana, UniProt Q9FTA2 1-239)
Assay: EMSA; 5 pmol protein, 50 fmol probe; no HaRxL10; LightShift Chemiluminescent EMSA Kit per manufacturer; 5 pmol protein, 50 fmol biotin probe, 200-fold unlabelled competitor; probes annealed in 10 mM Tris, 1 mM Na2EDTA, 50 mM NaCl; binding buffer, pH and temperature not stated
Settings: protein: recombinant; tags: GST (pET-42a); chain copies: 2; label: 5'-biotin; blunt

Chain of GST-CHE (Q9FTA2 whole entry): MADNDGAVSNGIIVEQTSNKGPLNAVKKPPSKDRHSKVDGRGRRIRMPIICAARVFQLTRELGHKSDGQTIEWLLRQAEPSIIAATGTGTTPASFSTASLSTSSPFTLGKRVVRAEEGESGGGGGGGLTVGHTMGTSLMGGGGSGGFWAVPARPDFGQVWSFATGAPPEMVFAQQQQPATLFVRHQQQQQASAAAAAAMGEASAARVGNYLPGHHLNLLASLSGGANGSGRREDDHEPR

B1: TBS probe (dsDNA)
DNA 1: GTAGGTCCCACTAGGTAGGTCCCACTAGGTAGGTCCCACTAGGTAGGTCCCACTAGGTAGGTCCCACTAG
DNA 2: CTAGTGGGACCTACCTAGTGGGACCTACCTAGTGGGACCTACCTAGTGGGACCTACCTAGTGGGACCTAC
Q: Does B1 bind?
A: binds
